Assay results from publication PMC7954794, “Protein context shapes the specificity of SH3 domain-mediated interactions in vivo” (Nature Communications, 2021).

System: Abp1 PPIs
Experiment: DHFR-PCA of Abp1 SH3-swapped baits (Fig. 2B-D, S2C, S2F);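 as to Protein-protein interaction distance between Abp1 SH3-swapped baits, to ABP1: Euclidean distance between DHFR-PCA score profiles of the baits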;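 as to Protein-protein interaction distance between Abp1 SH3-swapped baits, to BEM1-2: Euclidean distance between DHFR-PCA score profiles of the baits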;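 as to Protein-protein interaction distance between Abp1 SH3-swapped baits, to BOI1: Euclidean distance between DHFR-PCA score profiles of the baits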;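 as to Protein-protein interaction distance between Abp1 SH3-swapped baits, to BZZ1-1: Euclidean distance between DHFR-PCA score profiles of the baits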
Type: cell-based, Saccharomyces cerevisiae
Details: sheet Fig2C; for Protein-protein interaction distance between Abp1 SH3-swapped baits, to ABP1: Abp1 bait with swapped SH3, distance to bait with ABP1 SH3; for Protein-protein interaction distance between Abp1 SH3-swapped baits, to BBC1: distance to Abp1 bait with BBC1 SH3; for Protein-protein interaction distance between Abp1 SH3-swapped baits, to BEM1-1: distance to Abp1 bait with BEM1-1 SH3; for Protein-protein interaction distance between Abp1 SH3-swapped baits, to BEM1-2: distance to Abp1 bait with BEM1-2 SH3; for Protein-protein interaction distance between Abp1 SH3-swapped baits, to BOI1: distance to Abp1 bait with BOI1 SH3; for Protein-protein interaction distance between Abp1 SH3-swapped baits, to BOI2: distance to Abp1 bait with BOI2 SH3; for Protein-protein interaction distance between Abp1 SH3-swapped baits, to BUD14: distance to Abp1 bait with BUD14 SH3; for Protein-protein interaction distance between Abp1 SH3-swapped baits, to BZZ1-1: distance to Abp1 bait with BZZ1-1 SH3; for Protein-protein interaction distance between Abp1 SH3-swapped baits, to BZZ1-2: distance to Abp1 bait with BZZ1-2 SH3; for Protein-protein interaction distance between Abp1 SH3-swapped baits, to CDC25: distance to Abp1 bait with CDC25 SH3; for Protein-protein interaction distance between Abp1 SH3-swapped baits, to CTTN: distance to Abp1 bait with CTTN SH3; for Protein-protein interaction distance between Abp1 SH3-swapped baits, to CYK3: distance to Abp1 bait with CYK3 SH3; for Protein-protein interaction distance between Abp1 SH3-swapped baits, to DBNL: distance to Abp1 bait with DBNL SH3; for Protein-protein interaction distance between Abp1 SH3-swapped baits, to FUS1: distance to Abp1 bait with FUS1 SH3; for Protein-protein interaction distance between Abp1 SH3-swapped baits, to HCLS1: distance to Abp1 bait with HCLS1 SH3; for Protein-protein interaction distance between Abp1 SH3-swapped baits, to HOF1: distance to Abp1 bait with HOF1 SH3; for Protein-protein interaction distance between Abp1 SH3-swapped baits, to HSE1: distance to Abp1 bait with HSE1 SH3; for Protein-protein interaction distance between Abp1 SH3-swapped baits, to LSB1: distance to Abp1 bait with LSB1 SH3; for Protein-protein interaction distance between Abp1 SH3-swapped baits, to LSB3: distance to Abp1 bait with LSB3 SH3; for Protein-protein interaction distance between Abp1 SH3-swapped baits, to MYO3: distance to Abp1 bait with MYO3 SH3; for Protein-protein interaction distance between Abp1 SH3-swapped baits, to MYO5: distance to Abp1 bait with MYO5 SH3; for Protein-protein interaction distance between Abp1 SH3-swapped baits, to NBP2: distance to Abp1 bait with NBP2 SH3; for Protein-protein interaction distance between Abp1 SH3-swapped baits, to PEX13: distance to Abp1 bait with PEX13 SH3; for Protein-protein interaction distance between Abp1 SH3-swapped baits, to PIN3: distance to Abp1 bait with PIN3 SH3; for Protein-protein interaction distance between Abp1 SH3-swapped baits, to RVS167: distance to Abp1 bait with RVS167 SH3; for Protein-protein interaction distance between Abp1 SH3-swapped baits, to SDC25: distance to Abp1 bait with SDC25 SH3; for Protein-protein interaction distance between Abp1 SH3-swapped baits, to SHO1: distance to Abp1 bait with SHO1 SH3; for Protein-protein interaction distance between Abp1 SH3-swapped baits, to SLA1-1: distance to Abp1 bait with SLA1-1 SH3; for Protein-protein interaction distance between Abp1 SH3-swapped baits, to SLA1-2: distance to Abp1 bait with SLA1-2 SH3; for Protein-protein interaction distance between Abp1 SH3-swapped baits, to SLA1-3: distance to Abp1 bait with SLA1-3 SH3; for Protein-protein interaction distance between Abp1 SH3-swapped baits, to YSC84: distance to Abp1 bait with YSC84 SH3
How it was run: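 Yeast DHFR-PCA in which Abp1 baits, carrying their SH3 replaced by CRISPR–Cas9 with one of 27 yeast SH3s or human CTTN, HCLS1 or DBNL SH3s, were mated against 575 SH3-associated DHFR F[3] preys plus 40 negative controls. Four tests were run per PPI. Diploids were selected twice (48 h, 30 °C), then grown 4 days on PCA selection media.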

B1: FUS1 (protein, UniProt P11710 1-512, looked up)
Nuclear fusion protein FUS1: MVATIMQTTTTVLTTVAAMSTTLASNYISSQASSSTSVTTVTTIATSIRSTPSNLLFSNVAAQPKSSSASTIGLSIGLPIGIFCFGLLILLCYFYLKRNSVSISNPPMSATIPREEEYCRRTNWFSRLFWQSKCEDQNSYSNRDIEKYNDTQWTSGDNMSSKIQYKISKPIIPQHILTPKKTVKNPYAWSGKNISLDPKVNEMEEEKVVDAFLYTKPPNIVHIESSMPSYNDLPSQKTVSSKKTALKTSEKWSYESPLSRWFLRGSTYFKDYGLSKTSLKTPTGAPQLKQMKMLSRISKGYFNESDIMPDERSPILEYNNTPLDANDSVNNLGNTTPDSQITSYRNNNIDLITARPHSVIYGTTAQQTLETNFNDHHDCNKSTEKHELIIPTPSKPLKKRKKRRQSKMYQHLQHLSRSKPLPLTPNSKYNGEASVQLGKTYTVIQDYEPRLTDEIRISLGEKVKILATHTDGWCLVEKCNTQKGSIHVSVDDKRYLNEDRGIVPGDCLQEYD
- Protein-protein interaction distance between Abp1 SH3-swapped baits, to ABP1: 18.44
- Protein-protein interaction distance between Abp1 SH3-swapped baits, to BBC1: 16.64
- Protein-protein interaction distance between Abp1 SH3-swapped baits, to BEM1-1: 8.021
- Protein-protein interaction distance between Abp1 SH3-swapped baits, to BEM1-2: 22.67
- Protein-protein interaction distance between Abp1 SH3-swapped baits, to BOI1: 12.53
- Protein-protein interaction distance between Abp1 SH3-swapped baits, to BOI2: 10.5
- Protein-protein interaction distance between Abp1 SH3-swapped baits, to BUD14: 7.121
- Protein-protein interaction distance between Abp1 SH3-swapped baits, to BZZ1-1: 17.24
- Protein-protein interaction distance between Abp1 SH3-swapped baits, to BZZ1-2: 12.64
- Protein-protein interaction distance between Abp1 SH3-swapped baits, to CDC25: 14.2
- Protein-protein interaction distance between Abp1 SH3-swapped baits, to CTTN: 13.46
- Protein-protein interaction distance between Abp1 SH3-swapped baits, to CYK3: 14.91
- Protein-protein interaction distance between Abp1 SH3-swapped baits, to DBNL: 16.42
- Protein-protein interaction distance between Abp1 SH3-swapped baits, to FUS1: 0.00
- Protein-protein interaction distance between Abp1 SH3-swapped baits, to HCLS1: 20.02
- Protein-protein interaction distance between Abp1 SH3-swapped baits, to HOF1: 21.29
- Protein-protein interaction distance between Abp1 SH3-swapped baits, to HSE1: 16.23
- Protein-protein interaction distance between Abp1 SH3-swapped baits, to LSB1: 23.45
- Protein-protein interaction distance between Abp1 SH3-swapped baits, to LSB3: 23.48
- Protein-protein interaction distance between Abp1 SH3-swapped baits, to MYO3: 21.97
- Protein-protein interaction distance between Abp1 SH3-swapped baits, to MYO5: 21.47
- Protein-protein interaction distance between Abp1 SH3-swapped baits, to NBP2: 8.037
- Protein-protein interaction distance between Abp1 SH3-swapped baits, to PEX13: 21.37
- Protein-protein interaction distance between Abp1 SH3-swapped baits, to PIN3: 21.08
- Protein-protein interaction distance between Abp1 SH3-swapped baits, to RVS167: 19.5
- Protein-protein interaction distance between Abp1 SH3-swapped baits, to SDC25: 24.28
- Protein-protein interaction distance between Abp1 SH3-swapped baits, to SHO1: 16.07
- Protein-protein interaction distance between Abp1 SH3-swapped baits, to SLA1-1: 17.65
- Protein-protein interaction distance between Abp1 SH3-swapped baits, to SLA1-2: 8.845
- Protein-protein interaction distance between Abp1 SH3-swapped baits, to SLA1-3: 23.5
- Protein-protein interaction distance between Abp1 SH3-swapped baits, to YSC84: 23.88

B2: CYK3 (protein, UniProt Q07533 1-885, looked up)
Cytokinesis protein 3: MATNLTSLKPPFKVKARYGWSGQTKGDLGFLEGDIMEVTRIAGSWFYGKLLRNKKCSGYFPHNFVILLEERLNSSTENGRQPSKIVESFEKSNKVVIPPVPSRYSDERPRPKKKLSSSMPNSPKKPVDSLTKARKAKSKEMVNEKNIYNTQSSRHHNNSAPNLPLASHSKPQVRNFEESMNNPLPPLPPLPDLDNMRKTDKRAPKKSYSANDLHMARSSREYNYYKDNQKFYDGFIPEKRYSLEEDSISSGLFSNSQYLNDSACSSENSFALMSDFSATSAGSFARHKYAQSFSDSLQRSQNANGCSTKINDSQEFGDSNASSRNGKMGDILRKIIIPKRNTNIYSSSVSSPKSPKAYPKLPDIQNLNLSATPDEARDWIAVKCHLNRARTLTKYDKHPRYMRALEENRDLILHPQDSIYNGLNTNEVKGNTKPGLVDVELAELNIEYIDKMTWKRCIRDGTMTLDSWAQTTFSARYSTVLEKLRGIYIFCTEMFALTDDNGTSDFSAEPQNLEKILYRKHCTPYELTWLFKKLANSLGITCEIVIGFLKTPSAINWEFKYNHCWLRILVNKEWRFIDVILGNVTNPIHEFVNNRKIKKAENSYFLMAPLEMIYTHIPPREFEQHIVPSIDQLSALYLPLVFPSFFKNELKLYKFSTALSFLEDSEIYECSLEIPNDVEVFASVVIPTDNEEASSAYRNMELALTQIKKQKAESGRRIALIKAVLPPNVNKGSLYIHSGVRGTQTSIANIHPLSMMVPLTHKGSNMKYEFVIKIPSESIQKIELYIVEPQSRYLFVGNEYSFEVIQSPSDGIVYSSDEGPNQNRKQPMAIKSPSGRVHELVKSDPHFPYGTWKGSIKIKEPGVWSALVIADSGIGWSVFAEWLCV
- Protein-protein interaction distance between Abp1 SH3-swapped baits, to ABP1: 26.78
- Protein-protein interaction distance between Abp1 SH3-swapped baits, to BBC1: 25.11
- Protein-protein interaction distance between Abp1 SH3-swapped baits, to BEM1-1: 17.6
- Protein-protein interaction distance between Abp1 SH3-swapped baits, to BEM1-2: 11.87
- Protein-protein interaction distance between Abp1 SH3-swapped baits, to BOI1: 21.68
- Protein-protein interaction distance between Abp1 SH3-swapped baits, to BOI2: 20.06
- Protein-protein interaction distance between Abp1 SH3-swapped baits, to BUD14: 16.1
- Protein-protein interaction distance between Abp1 SH3-swapped baits, to BZZ1-1: 26.08
- Protein-protein interaction distance between Abp1 SH3-swapped baits, to BZZ1-2: 22.45
- Protein-protein interaction distance between Abp1 SH3-swapped baits, to CDC25: 5.497
- Protein-protein interaction distance between Abp1 SH3-swapped baits, to CTTN: 21.37
- Protein-protein interaction distance between Abp1 SH3-swapped baits, to CYK3: 0.00
- Protein-protein interaction distance between Abp1 SH3-swapped baits, to DBNL: 25.11
- Protein-protein interaction distance between Abp1 SH3-swapped baits, to FUS1: 14.91
- Protein-protein interaction distance between Abp1 SH3-swapped baits, to HCLS1: 28.59
- Protein-protein interaction distance between Abp1 SH3-swapped baits, to HOF1: 10.8
- Protein-protein interaction distance between Abp1 SH3-swapped baits, to HSE1: 25.16
- Protein-protein interaction distance between Abp1 SH3-swapped baits, to LSB1: 31.53
- Protein-protein interaction distance between Abp1 SH3-swapped baits, to LSB3: 31.13
- Protein-protein interaction distance between Abp1 SH3-swapped baits, to MYO3: 30.11
- Protein-protein interaction distance between Abp1 SH3-swapped baits, to MYO5: 29.49
- Protein-protein interaction distance between Abp1 SH3-swapped baits, to NBP2: 15.74
- Protein-protein interaction distance between Abp1 SH3-swapped baits, to PEX13: 29.86
- Protein-protein interaction distance between Abp1 SH3-swapped baits, to PIN3: 28.76
- Protein-protein interaction distance between Abp1 SH3-swapped baits, to RVS167: 28.09
- Protein-protein interaction distance between Abp1 SH3-swapped baits, to SDC25: 15.21
- Protein-protein interaction distance between Abp1 SH3-swapped baits, to SHO1: 24.75
- Protein-protein interaction distance between Abp1 SH3-swapped baits, to SLA1-1: 5.436
- Protein-protein interaction distance between Abp1 SH3-swapped baits, to SLA1-2: 14.43
- Protein-protein interaction distance between Abp1 SH3-swapped baits, to SLA1-3: 31.65
- Protein-protein interaction distance between Abp1 SH3-swapped baits, to YSC84: 31.42
